# Measured values as given in IntAct's records for PubMed 32017888.
# B1: RILP-like protein 2 (Homo sapiens), Q969X0 (parent)
# chain: MEEPPVREEEEEEGEEDEERDEVGPEGALGKSPFQLTAEDVYDISYLLGRELMALGSDPRVTQLQFKVVRVLEMLEALVNEGSLALEELKMERDHLRKEVEGLRRQSPPASGEVNLGPNKMVVDLTDPNRPRFTLQELRDVLQERNKLKSQLLVVQEELQCYKSGLIPPREGPGGRREKDAVVTSAKNAGRNKEEKTIIKKLFFFRSGKQT
# B2: Ras-related protein Rab-8A (Homo sapiens), P61006 (parent)
# chain: MAKTYDYLFKLLLIGDSGVGKTCVLFRFSEDAFNSTFISTIGIDFKIRTIELDGKRIKLQIWDTAGQERFRTITTAYYRGAMGIMLVYDITNEKSFDNIRNWIRNIEEHASADVEKMILGNKCDVNDKRQVSKERGEKLALDYGIKFMETSAKANINVENAFFTLARDIKAKMDKKLEGNSPQGSNQGVKITPDQQKRSSFFRCVLL
# partner: B1 chain
# Variants of: B1
# Details: with rab8a_human RAB8A
row,effect of a mutation on the interaction,Variant
1,disrupting interaction strength,MEEPPVREEEEEEGEEDEERDEVGPEGALGKSPFQLTAEDVYDISYLLGRELMALGSDPRVTQLQFKVVRVLEMLEALVNEGSLALEELKMERDHLRKEVEGLRRQSPPASGEVNLGPNKMVVDLTDPNRPEFTLQELRDVLQERNKLKSQLLVVQEELQCYKSGLIPPREGPGGRREKDAVVTSAKNAGRNKEEKTIIKKLFFFRSGKQT [R132E]
2,disrupting interaction strength,MEEPPVREEEEEEGEEDEERDEVGPEGALGKSPFQLTAEDVYDISYLLGRELMALGSDPRVTQLQFKVVRVLEMLEALVNEGSLALEELKMERDHLRKEVEGLRRQSPPASGEVNLGPNKMVVDLTDPNRPKFTLQELRDVLQERNKLKSQLLVVQEELQCYKSGLIPPREGPGGRREKDAVVTSAKNAGRNKEEKTIIKKLFFFRSGKQT [R132K]
3,disrupting interaction strength,MEEPPVREEEEEEGEEDEERDEVGPEGALGKSPFQLTAEDVYDISYLLGRELMALGSDPRVTQLQFKVVRVLEMLEALVNEGSLALEELKMERDHLRKEVEGLRRQSPPASGEVNLGPNKMVVDLTDPNRPQFTLQELRDVLQERNKLKSQLLVVQEELQCYKSGLIPPREGPGGRREKDAVVTSAKNAGRNKEEKTIIKKLFFFRSGKQT [R132Q]
4,decreasing interaction strength,MEEPPVREEEEEEGEEDEERDEVGPEGALGKSPFQLTAEDVYDISYLLGRELMALGSDPRVTQLQFKVVRVLEMLEALVNEGSLALEELKMERDHLRKEVEGLRRQSPPASGEVNLGPNKMVVDLTDPNRKRFTLQELRDVLQERNKLKSQLLVVQEELQCYKSGLIPPREGPGGRREKDAVVTSAKNAGRNKEEKTIIKKLFFFRSGKQT [P131K]
5,decreasing interaction strength,MEEPPVREEEEEEGEEDEERDEVGPEGALGKSPFQLTAEDVYDISYLLGRELMALGSDPRVTQLQFKVVRVLEMLEALVNEGSLALEELKMERDHLRKEVEGLRRQSPPASGEVNLGPNKMVVDLTDPNRRRFTLQELRDVLQERNKLKSQLLVVQEELQCYKSGLIPPREGPGGRREKDAVVTSAKNAGRNKEEKTIIKKLFFFRSGKQT [P131R]
6,decreasing interaction strength,MEEPPVREEEEEEGEEDEERDEVGPEGALGKSPFQLTAEDVYDISYLLGRELMALGSDPRVTQLQFKVVRVLEMLEALVNEGSLALEELKMERDHLRKEVEGLRRQSPPASGEVNLGPNKMVVDLTDPNRARFTLQELRDVLQERNKLKSQLLVVQEELQCYKSGLIPPREGPGGRREKDAVVTSAKNAGRNKEEKTIIKKLFFFRSGKQT [P131A]
7,decreasing interaction strength,MEEPPVREEEEEEGEEDEERDEVGPEGALGKSPFQLTAEDVYDISYLLGRELMALGSDPRVTQLQFKVVRVLEMLEALVNEGSLALEELKMERDHLRKEVEGLRRQSPPASGEVNLGPNKMVVDLTDPNRCRFTLQELRDVLQERNKLKSQLLVVQEELQCYKSGLIPPREGPGGRREKDAVVTSAKNAGRNKEEKTIIKKLFFFRSGKQT [P131C]
8,disrupting interaction strength,MEEPPVREEEEEEGEEDEERDEVGPEGALGKSPFQLTAEDVYDISYLLGRELMALGSDPRVTQLQFKVVRVLEMLEALVNEGSLALEELKMERDHLRKEVEGLRRQSPPASGEVNLGPNKMVVDLTDPNRPRATLQELRDVLQERNKLKSQLLVVQEELQCYKSGLIPPREGPGGRREKDAVVTSAKNAGRNKEEKTIIKKLFFFRSGKQT [F133A]
9,disrupting interaction strength,MEEPPVREEEEEEGEEDEERDEVGPEGALGKSPFQLTAEDVYDISYLLGRELMALGSDPRVTQLQFKVVRVLEMLEALVNEGSLALEELKMERDHLRKEVEGLRRQSPPASGEVNLGPNKMVVDLTDPNEPRFTLQELRDVLQERNKLKSQLLVVQEELQCYKSGLIPPREGPGGRREKDAVVTSAKNAGRNKEEKTIIKKLFFFRSGKQT [R130E]
10,decreasing interaction strength,MEEPPVREEEEEEGEEDEERDEVGPEGALGKSPFQLTAEDVYDISYLLGRELMALGSDPRVTQLQFKVVRVLEMLEALVNEGSLALEELKMERDHLRKEVEGLRRQSPPASGEVNLGPNKMVVDLTDPNKPRFTLQELRDVLQERNKLKSQLLVVQEELQCYKSGLIPPREGPGGRREKDAVVTSAKNAGRNKEEKTIIKKLFFFRSGKQT [R130K]
11,decreasing interaction strength,MEEPPVREEEEEEGEEDEERDEVGPEGALGKSPFQLTAEDVYDISYLLGRELMALGSDPRVTQLQFKVVRVLEMLEALVNEGSLALEELKMERDHLRKEVEGLRRQSPPASGEVNLGPNKMVVDLTDPNAPRFTLQELRDVLQERNKLKSQLLVVQEELQCYKSGLIPPREGPGGRREKDAVVTSAKNAGRNKEEKTIIKKLFFFRSGKQT [R130A]
12,decreasing interaction strength,MEEPPVREEEEEEGEEDEERDEVGPEGALGKSPFQLTAEDVYDISYLLGRELMALGSDPRVTQLQFKVVRVLEMLEALVNEGSLALEELKMERDHLRKEVEGLRRQSPPASGEVNLGPNKMVVDLTDPNQPRFTLQELRDVLQERNKLKSQLLVVQEELQCYKSGLIPPREGPGGRREKDAVVTSAKNAGRNKEEKTIIKKLFFFRSGKQT [R130Q]
13,decreasing interaction strength,MEEPPVREEEEEEGEEDEERDEVGPEGALGKSPFQLTAEDVYDISYLLGRELMALGSDPRVTQLQFKVVRVLEMLEALVNEGSLALEELKMERDHLRKEVEGLRRQSPPASGEVNLGPNKMVVDLTDPNRPRFTAQELRDVLQERNKLKSQLLVVQEELQCYKSGLIPPREGPGGRREKDAVVTSAKNAGRNKEEKTIIKKLFFFRSGKQT [L135A]
14,decreasing interaction strength,MEEPPVREEEEEEGEEDEERDEVGPEGALGKSPFQLTAEDVYDISYLLGRELMALGSDPRVTQLQFKVVRVLEMLEALVNEGSLALEELKMERDHLRKEVEGLRRQSPPASGEVNLGPNKMVVDLTDPNRPRFTLQELRDVLQERNKLASQLLVVQEELQCYKSGLIPPREGPGGRREKDAVVTSAKNAGRNKEEKTIIKKLFFFRSGKQT [K149A]
15,decreasing interaction strength,MEEPPVREEEEEEGEEDEERDEVGPEGALGKSPFQLTAEDVYDISYLLGRELMALGSDPRVTQLQFKVVRVLEMLEALVNEGSLALEELKMERDHLRKEVEGLRRQSPPASGEVNLGPNKMVVDLTDPNRPRFTLQELRDVLQERNKLESQLLVVQEELQCYKSGLIPPREGPGGRREKDAVVTSAKNAGRNKEEKTIIKKLFFFRSGKQT [K149E]
16,decreasing interaction strength,MEEPPVREEEEEEGEEDEERDEVGPEGALGKSPFQLTAEDVYDISYLLGRELMALGSDPRVTQLQFKVVRVLEMLEALVNEGSLALEELKMERDHLRKEVEGLRRQSPPASGEVNLGPNKMVVDLTDPNRPRFTLQELRDVLQERNKLQSQLLVVQEELQCYKSGLIPPREGPGGRREKDAVVTSAKNAGRNKEEKTIIKKLFFFRSGKQT [K149Q]
17,with no effect,MEEPPVREEEEEEGEEDEERDEVGPEGALGKSPFQLTAEDVYDISYLLGRELMALGSDPRVTQLQFKVVRVLEMLEALVNEGSLALEELKMERDHLRKEVEGLRRQSPPASGEVNLGPNKMVVDLTDPNRPRFTLQELQDVLQERNKLKSQLLVVQEELQCYKSGLIPPREGPGGRREKDAVVTSAKNAGRNKEEKTIIKKLFFFRSGKQT [R139Q]
18,with no effect,MEEPPVREEEEEEGEEDEERDEVGPEGALGKSPFQLTAEDVYDISYLLGRELMALGSDPRVTQLQFKVVRVLEMLEALVNEGSLALEELKMERDHLRKEVEGLRRQSPPASGEVNLGPNKMVVDLTDPNRPRFTLQELADVLQERNKLKSQLLVVQEELQCYKSGLIPPREGPGGRREKDAVVTSAKNAGRNKEEKTIIKKLFFFRSGKQT [R139A]
19,decreasing interaction strength,MEEPPVREEEEEEGEEDEERDEVGPEGALGKSPFQLTAEDVYDISYLLGRELMALGSDPRVTQLQFKVVRVLEMLEALVNEGSLALEELKMERDHLRKEVEGLRRQSPPASGEVNLGPNKMVVDLTDPNRPRFTLQELEDVLQERNKLKSQLLVVQEELQCYKSGLIPPREGPGGRREKDAVVTSAKNAGRNKEEKTIIKKLFFFRSGKQT [R139E]
20,decreasing interaction strength,MEEPPVREEEEEEGEEDEERDEVGPEGALGKSPFQLTAEDVYDISYLLGRELMALGSDPRVTQLQFKVVRVLEMLEALVNEGSLALEELKMERDHLRKEVEGLRRQSPPASGEVNLGPNKMVVDLTDPNRPRFTLQELRDVLQERNKLKSQLLVVQKELQCYKSGLIPPREGPGGRREKDAVVTSAKNAGRNKEEKTIIKKLFFFRSGKQT [E157K]
21,decreasing interaction strength,MEEPPVREEEEEEGEEDEERDEVGPEGALGKSPFQLTAEDVYDISYLLGRELMALGSDPRVTQLQFKVVRVLEMLEALVNEGSLALEELKMERDHLRKEVEGLRRQSPPASGEVNLGPNKMVVDLTDPNRPRFTLQELRDVLQERNKLKSQLLVVQQELQCYKSGLIPPREGPGGRREKDAVVTSAKNAGRNKEEKTIIKKLFFFRSGKQT [E157Q]
22,decreasing interaction strength,MEEPPVREEEEEEGEEDEERDEVGPEGALGKSPFQLTAEDVYDISYLLGRELMALGSDPRVTQLQFKVVRVLEMLEALVNEGSLALEELKMERDHLRKEVEGLRRQSPPASGEVNLGPNKMVVDLTDPNRPRFTLQELRDVLQERNKLKSQLLVVQAELQCYKSGLIPPREGPGGRREKDAVVTSAKNAGRNKEEKTIIKKLFFFRSGKQT [E157A]

# Variants of: B1
# Details: with rab8a_human RAB8A, P61006
row,effect of a mutation on the interaction,Variant
1,disrupting interaction strength,MEEPPVREEEEEEGEEDEERDEVGPEGALGKSPFQLTAEDVYDISYLLGRELMALGSDPRVTQLQFKVVRVLEMLEALVNEGSLALEELKMERDHLRKEVEGLRRQSPPASGEVNLGPNKMVVDLTDPNRPAFTLQELRDVLQERNKLKSQLLVVQEELQCYKSGLIPPREGPGGRREKDAVVTSAKNAGRNKEEKTIIKKLFFFRSGKQT [R132A]

# Variants of: B2
# Details: with ripl2_human RILPL2, Q969X0
row,effect of a mutation on the interaction,Variant
1,with no effect,MAKAYDYLFKLLLIGDSGVGKTCVLFRFSEDAFNSTFISTIGIDFKIRTIELDGKRIKLQIWDTAGQERFRTITTAYYRGAMGIMLVYDITNEKSFDNIRNWIRNIEEHASADVEKMILGNKCDVNDKRQVSKERGEKLALDYGIKFMETSAKANINVENAFFTLARDIKAKMDKKLEGNSPQGSNQGVKITPDQQKRSSFFRCVLL [T4A]
2,disrupting interaction strength,MAKTYDYLFKLLLIGDSGVGKTCVLFRFSEDAFNSTFISTIGIAFKIRTIELDGKRIKLQIWDTAGQERFRTITTAYYRGAMGIMLVYDITNEKSFDNIRNWIRNIEEHASADVEKMILGNKCDVNDKRQVSKERGEKLALDYGIKFMETSAKANINVENAFFTLARDIKAKMDKKLEGNSPQGSNQGVKITPDQQKRSSFFRCVLL [D44A]
